Reference: PMC8596708

Substrate: CNC(=O)Oc1ccc2[nH]cc(CCNC(C)=O)c2c1
Assay: MTase-Glo bioluminescence assay
Type: biochemical, Streptomyces griseofuscus
Settings: […] SAM; optimized conditions ([…] °C, pH […] KPi stated as optimum)

B1: PsmD (Streptomyces griseofuscus) (protein)
chain: MMQGQPHQDAGMPEPYAATADVYDRLVDYAIAEWGECPRPQMADFVEQAWAARGHRVRRVLELCCGTGLMTEQLVRRGYEVTAVDRSETMLALAKQRVGGAADFHQIELPAPLPDGADAVVCTAAAFNYQASARSLGETLRAVATVLPAGATFVFDIETAALLKGHWGNRVWAADEGDLAFIWDFTSEPDTTYCDVHYTQFTRHEAGADAYTGVREVHRLYAFDHDTVRAQARAAGFAQAEVFDNYTERPATDTTRYETWVLTRDER
B1 was tested. Which Km did it give?
The Km was 11.3 µM.
